± gives the uncertainty stated by the source.
Assay: protein stability index of a GFP-peptide fusion (yeast GPS) (PSI 1-4); higher = more stable; sorted into four equal gates, so the index is relative within each strain
Summary of the method: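 Yeast carrying a pooled library were grown to mid-log phase in leucine-free medium. Each library plasmid expresses Cherry and has a tiled 17-residue yeast protein peptide fused downstream of GFP. Cells were sorted into four equal gates by GFP/Cherry ratio, and plasmids from each gate were PCR-amplified, Illumina-sequenced and assigned to strains by barcode. Summing, across gates, the read frequency times the gate number gave each peptide's protein stability index.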

Row | Sequence | protein stability index (doa10∆) | protein stability index (san1∆) | protein stability index (ubr1∆) | protein stability index (pdr5∆)
1 | LMLEDAVTEREVLVTPG [MCD1] | 1.94 ± 0.2 | 2.16 ± 0.13 | 2.18 ± 0.27 | –
2 | QAQAQVYAQQSTVQTPI [PGD1] | 2.8 ± 0.052 | 2.83 ± 0.048 | 2.95 ± 0.059 | 2.91 ± 0.055
3 | KYLIKYNVFRQHTSFQE [CSI1] | 1.24 ± 0.069 | 1.13 ± 0.14 | 1.19 ± 0.058 | 1.2 ± 0.046
4 | LTDHRKETWLHELSSSH [SRB8] | – | – | 2.76 ± 0.14 | 3.58 ± 0.19
5 | KSTTPYVSALKRINKFL [POP7] | 2.04 ± 0.047 | 2 ± 0.067 | 1.63 ± 0.034 | 1.55 ± 0.036
6 | CQLQNSDNSEEEEVDID [RRP43] | 3.2 ± 0.077 | 3.02 ± 0.08 | 3.13 ± 0.056 | 3.22 ± 0.065
7 | MKFQESLKKVDEIKAQR [SMC4] | – | 3.34 ± 0.17 | 3.57 ± 0.082 | 3.57 ± 0.26
8 | VNDTVKIDLASGKITDF [RPS4A] | 3.07 ± 0.12 | 3.26 ± 0.12 | 2.71 ± 0.15 | 3.17 ± 0.1
9 | SNYSRTMTISHLLLGFQ [YJL039C/NUP192] | 1.82 ± 0.05 | 1.59 ± 0.058 | 2.1 ± 0.034 | 1.69 ± 0.044
10 | SHNENKMDFSSKEGQYK [YIL149C/MLP2] | 3.27 ± 0.077 | 3.25 ± 0.065 | 3.28 ± 0.064 | 3.29 ± 0.07
11 | AQFIVISLRNNMFELAQ [SMC4] | 2.14 ± 0.11 | 1.51 ± 0.092 | 2.02 ± 0.09 | 1.67 ± 0.082
12 | HINKKSQLDLFLRTMKL [GRR1] | 1.94 ± 0.067 | 1.21 ± 0.11 | 2.02 ± 0.1 | 2.33 ± 0.076
13 | RKPMGKRINFEKIKDIH [POP1] | 2.67 ± 0.051 | 3.04 ± 0.065 | 2.87 ± 0.038 | 3.12 ± 0.05
14 | VKKVIEINPFLLGTMAG [PRE2] | 1.37 ± 0.14 | 1.38 ± 0.28 | – | 1.86 ± 0.18
15 | RMKQYLKTKLLEEVEGS [RPB7] | 3.09 ± 0.13 | 3.11 ± 0.088 | 3.24 ± 0.13 | 3.09 ± 0.1
16 | ALRRRVGPSEQNFAEED [REC8] | 3.37 ± 0.12 | 3.39 ± 0.11 | 3.24 ± 0.098 | 3.51 ± 0.15
17 | RQILFKYPMYMQLEEEL [MED6] | 2.18 ± 0.064 | 2.37 ± 0.12 | 1.72 ± 0.062 | 2.25 ± 0.069
18 | MNHDPFSWGRPADSTYG [PRE4] | 3.05 ± 0.086 | 3.15 ± 0.057 | 3.22 ± 0.052 | 3.28 ± 0.087
19 | RELTKNILWRIADKTTY [SIR4] | 3.02 ± 0.094 | 2.68 ± 0.11 | 3.02 ± 0.05 | 2.6 ± 0.065
20 | QEWLANLKLISVSLVDE [SIR4] | 2.77 ± 0.057 | 2.46 ± 0.056 | 1.67 ± 0.039 | 1.87 ± 0.047
21 | VANVKDLETLTMHTKTY [RPL32] | 3.08 ± 0.13 | 2.98 ± 0.075 | 2.95 ± 0.077 | 3.01 ± 0.11
22 | TKTEALLSDVVSTSSGA [YJL041W/NSP1] | 2.73 ± 0.13 | 2.75 ± 0.15 | – | 3.1 ± 0.2
23 | KKRRGSRIYKTIKVAGT [SNU114] | 1.6 ± 0.042 | 1.61 ± 0.069 | 1.8 ± 0.043 | 1.78 ± 0.045
24 | DLEHKEDCVEEFFHLQH [QCR6] | 2.77 ± 0.1 | 2.69 ± 0.14 | 3.37 ± 0.1 | 2.75 ± 0.11
25 | MGRVIRNQRKGAGSIFT [RPL2A] | 2.95 ± 0.2 | 2.77 ± 0.25 | 2.75 ± 0.15 | 3.28 ± 0.12
26 | PQKPVPLNVLQDQYKEG [SNF2] | 3.01 ± 0.07 | 3.1 ± 0.086 | 2.94 ± 0.044 | 3.33 ± 0.096
27 | CDILVATPGRLIDSLEN [PRP28] | 3.54 ± 0.12 | 3.2 ± 0.06 | 3.22 ± 0.065 | 3.24 ± 0.11

Row | Sequence | protein stability index (doa10∆) | protein stability index (san1∆) | protein stability index (ubr1∆) | protein stability index (pdr5∆)
28 | SPVSSVHTANFSERGSN [MED2] | 2.71 ± 0.083 | 2.53 ± 0.072 | 2.86 ± 0.044 | 2.82 ± 0.068
29 | DQRDELLEQKKSIINSQ [ITC1] | 3.08 ± 0.085 | 3.11 ± 0.062 | 3.19 ± 0.068 | 3.1 ± 0.075
30 | SVDICNNSKSRYPMNLL [ECM29] | 1.86 ± 0.1 | 2.71 ± 0.077 | 1.31 ± 0.079 | 2.35 ± 0.056
31 | IREINYTMSNHGMSVDP [RPO31] | 2.87 ± 0.16 | 3.03 ± 0.11 | 3.06 ± 0.13 | 3.03 ± 0.2
32 | IRDPLTQTGLLQDLEEA [RPC82] | 3.31 ± 0.23 | 3.15 ± 0.28 | – | 3.2 ± 0.17
33 | ETERLISQSQLGKFKNI [SIN4] | 3.09 ± 0.13 | – | – | –
34 | ERQQENLLIQRLNFNQN [SWI3] | 3.26 ± 0.071 | 3.2 ± 0.042 | 3.19 ± 0.055 | 3.38 ± 0.073
35 | KIITSRPLQKIMLLQLE [SIN4] | 2.12 ± 0.06 | 2 ± 0.071 | 1.63 ± 0.044 | 2.08 ± 0.052
36 | ALLGDKIYNFGELLHHP [RPN9] | – | 2.36 ± 0.29 | – | –
37 | LAYAVLGIALIALGEDI [RPN1] | 1.73 ± 0.094 | 1.98 ± 0.11 | 2.33 ± 0.06 | 1.72 ± 0.094
38 | RSKGKQNRPYNHPELQG [RPC17] | 2.08 ± 0.047 | 2.03 ± 0.088 | 1.94 ± 0.053 | 2.32 ± 0.082
39 | DLSLLGYCDDIAAMVAQ [SIR2] | 2.56 ± 0.06 | 2.82 ± 0.052 | 2.24 ± 0.041 | 2.08 ± 0.043
40 | LELRNSVMDDILEMMPE [PRP8] | 3.53 ± 0.12 | 3.15 ± 0.09 | 3.37 ± 0.068 | 3.26 ± 0.12
41 | YLESLFAKQVDVQLERV [IRR1] | 2.49 ± 0.095 | 2.36 ± 0.12 | 2.5 ± 0.051 | 2.19 ± 0.074
42 | LQRPTATDEESVRLQRF [CSN12] | 2.75 ± 0.089 | 2.97 ± 0.1 | 3.16 ± 0.1 | 2.98 ± 0.12
43 | KFFQKKIHLYEKKLEDY [YGL172W/NUP49] | 2.83 ± 0.093 | 2.71 ± 0.071 | 2.94 ± 0.089 | 2.75 ± 0.089
44 | MDPGAPLPVETPRDRRK [SSN2] | – | 3.25 ± 0.25 | – | –
45 | KKIIKCDEHMGLSLAGL [PRE5] | 2.94 ± 0.079 | 3.15 ± 0.075 | 2.94 ± 0.076 | 3.2 ± 0.076
46 | IVLLDDEGKEIPATIFD [TAF14] | 2.82 ± 0.06 | 3.04 ± 0.035 | 3.06 ± 0.05 | 3.07 ± 0.048
47 | KLLKGATLYIPKALRFD [FAS2] | – | 2.88 ± 0.13 | – | 2.79 ± 0.22
48 | LPENIILTSLMRSKLEK [CSN9] | 2.38 ± 0.084 | 2.78 ± 0.061 | 2.7 ± 0.048 | 3.05 ± 0.063
49 | NGTTVWGTLQSVSPQMN [SMD1] | 3.57 ± 0.25 | 3.39 ± 0.19 | 2.96 ± 0.18 | 3.01 ± 0.24
50 | IVKGNIIDEIKCIPKKG [POP4] | 1.79 ± 0.05 | 2.29 ± 0.06 | 2.09 ± 0.045 | 1.9 ± 0.05
51 | IVNHEQDLPKINDKRAN [SRB4] | 3.28 ± 0.19 | 2.96 ± 0.098 | 3.08 ± 0.08 | 3.21 ± 0.11
52 | NRHNLLNDVVSFLFSAI [SWI1] | 2.19 ± 0.077 | 2.4 ± 0.067 | 2.4 ± 0.043 | 2.58 ± 0.05
53 | NNNNTIDESMPDTAIDS [GRR1] | 2.78 ± 0.061 | 2.81 ± 0.061 | 3 ± 0.044 | 3.02 ± 0.052
